EC50 data for three molecules are collected here from EP4663662A1 (Shanghai Qilu Pharmaceutical Research and Development …, dated 2025).

Substitutions are numbered along the chain they refer to. Where two headings read alike, the source gives them in different places.

Test [1] has as its target T1, human BCMA (human, UniProt Q02223 1-184).
T1 construct: On transfected CHOK1 cells; also called Human BCMA-CHOK1 cell line; Human BCMA CHOK1
T1 sequence: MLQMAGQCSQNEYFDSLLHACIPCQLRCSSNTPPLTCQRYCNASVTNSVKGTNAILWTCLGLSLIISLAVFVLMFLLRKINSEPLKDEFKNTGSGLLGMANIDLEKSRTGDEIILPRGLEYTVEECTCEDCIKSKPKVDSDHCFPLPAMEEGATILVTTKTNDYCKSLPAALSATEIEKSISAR
The test is described as follows: flow cytometry, human BCMA-CHOK1 cells. A general note: Flow cytometry measures light scatter and fluorescence of single cells or particles in a stream.

Test [2] addresses T2, cynomolgus monkey BCMA (cynomolgus monkey, UniProt Q02223 1-184 (human entry)).
T2 construct: On transduced CHOK1 cells; also called cyno-BCMA; Cynomolgus monkey BCMA-CHOK1 cell line
In words: flow cytometry, cynomolgus BCMA-CHOK1 cells.

Test [3] deals with T1, human BCMA. In words: flow cytometry, human BCMA-CHOK1 cells. The source holds these as a separate data set.
Test [4] concerns the target T2, cynomolgus monkey BCMA. In words: flow cytometry, cynomolgus BCMA-CHOK1 cells. This is another data set of the same source.
The target in test [5] is T1, human BCMA. In words: flow cytometry, human BCMA-CHOK1 cells. This is another data set of the same source.
The target in test [6] is T2, cynomolgus monkey BCMA. The test is described as follows: flow cytometry, cynomolgus BCMA-CHOK1 cells. This is another data set of the same source.

T2 sequence (Q02223 other isoform, or with tags, fused parts or gaps): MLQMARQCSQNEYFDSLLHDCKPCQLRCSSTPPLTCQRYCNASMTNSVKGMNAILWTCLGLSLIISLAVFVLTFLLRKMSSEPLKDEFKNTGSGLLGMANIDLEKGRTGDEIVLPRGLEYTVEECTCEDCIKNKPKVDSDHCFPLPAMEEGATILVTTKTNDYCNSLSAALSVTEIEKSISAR

B1: 19CH-16H2L2 humanized anti-BCMA antibody (antibody, IgG1, V domains shown)
VH: QVQLVQSGAEVKKPGASVKVSCKASGFTFRSSYISWVRQAPGQGLEWIAWIYAGSGNTDYNQKFTGRVTMTVDTSTSTVYMELSSLRSEDTAVYYCARHYDPPHYFDYWGQGTLVTVSS
VL: DIQLTQSPSSLSASVGDRVTITCSASSGVSHMHWYQQKPGKAPKRWIYDTSKLTSGVPSRFSGSGSGTDFTLTISSLQPEDFATYYCQQWSRNPWTFGQGTKVEIK
As to B1, the EC50 (as a rule, the concentration at which the effect is half-maximal) in the test with human BCMA [1] was 2.13 nM; in the test with cynomolgus monkey BCMA [2] it was 4.82 nM.

B2: 19CH-16H2L2-NA humanized anti-BCMA antibody variant (antibody, IgG1, V domains shown)
VH: B1 VH with T58A
VL: B1 VL
On to B2, for which the results for the EC50 in the test with human BCMA [3] and in the test with cynomolgus monkey BCMA [4] were 2.15 nM and 5.86 nM, respectively.

B3: 19CH-16 anti-BCMA chimeric antibody derived from mouse hybridoma (antibody, IgG1, V domains shown)
VH: QGQMQQSGAELVKPGTSVKLSCKTSGFTFRSSYISWLQQKPGQSLEWIAWIYAGSGNTDYNQKFTGKAQLTVDTSSSTAYMQFSSLTTEDSAIYYCARHYDPPHYFDYWGQGTTLTVSS
VL: QIVLTQSPAIMSASPGEKVTMTCSASSGVSHMHWYQQKSGTSPKRWIYDTSKLTSGVPTRFSGTGSGTSYSLSISSMEAEDAATYYCQQWSRNPWTFGGGTKLEIK
With B3, the EC50 with human BCMA [5] was 0.885 nM; with cynomolgus monkey BCMA [6], 1.22 nM.
